Data reported in article PMC3621891, “Structural Insights into Omega-Class Glutathione Transferases: A Snapshot of Enzyme Reduction and Identification of a Non-Catalytic Ligandin Site” (PLoS ONE, 2013).

Target: the molecule itself
Assay: crystal structure; hanging-drop vapour diffusion at 4°C, 2.2 M ammonium sulfate, 100 mM sodium acetate pH 4.25 and 4.75; crystals soaked with 4NPG (one also with GSH); one protomer in the asymmetric unit, dimer by crystallographic two-fold

B1: hGSTO1-1 C32A mutant (human omega-class glutathione transferase 1-1, active-site mutant) (enzyme)
chain: MSGESARSLGKGSAPPGPVPEGSIRIYSMRFAPFAERTRLVLKAKGIRHEVININLKNKPEWFFKKNPFGLVPVLENSQGQLIYESAITCEYLDEAYPGKKLLPDDPYEKACQKMILELFSKVPSLVGSFIRSQNKEDYAGLKEEFRKEFTKLEEVLTNKKTTFFGGNSISMIDYLIWPWFERLEAMKLNECVDHTPKLKLWMAAMKEDPTVSALLTSEKDWQGFLELYLQNSPEACDYGL
notes: human glutathione transferase omega 1 (hGSTO1), C32A active-site mutant; after cleavage no additional N-terminal residues; residues 4 to 241 are seen in the final model; Homodimer; the dimer is produced by two-fold crystallographic symmetry (one protomer in the asymmetric unit); Crystals held GSSG, 4NPG, DTT and sulfate; source: E. coli BL21 (DE3), purified (Ni-NTA agarose, cleavage by …)
B1: binds.
